Test results reported in patent publication US20220033520A1.

Assays:
[1] = target: human FcRn complex (FCGRT and beta-2 microglobulin), recombinant, purified (human) (UniProt P55899); assay: SPR, anti-human Fab capture, pH 6, steady state
[2] = target: human FcRn complex (FCGRT and beta-2 microglobulin), recombinant, purified (human) (UniProt P55899); assay: SPR, anti-human Fab capture, pH 7.4, steady state
[3] = target: human FcRn complex (FCGRT and beta-2 microglobulin), recombinant, purified (human) (UniProt P55899); assay: SPR, protein L capture, pH 6, kinetic
[4] = target: human FcRn complex (FCGRT and beta-2 microglobulin), recombinant, purified (human) (UniProt P55899); assay: SPR, protein L capture, pH 7.4, steady state
[5] = target: human FcRn (FCGRT and beta-2 microglobulin) expressed on MDCK II cells (human) (UniProt P55899); assay: cell-based or functional assay
Sequence of human FcRn (FCGRT and beta-2 microglobulin) expressed on MDCK II cells (human) (P55899 24-365, chain 1 of 2): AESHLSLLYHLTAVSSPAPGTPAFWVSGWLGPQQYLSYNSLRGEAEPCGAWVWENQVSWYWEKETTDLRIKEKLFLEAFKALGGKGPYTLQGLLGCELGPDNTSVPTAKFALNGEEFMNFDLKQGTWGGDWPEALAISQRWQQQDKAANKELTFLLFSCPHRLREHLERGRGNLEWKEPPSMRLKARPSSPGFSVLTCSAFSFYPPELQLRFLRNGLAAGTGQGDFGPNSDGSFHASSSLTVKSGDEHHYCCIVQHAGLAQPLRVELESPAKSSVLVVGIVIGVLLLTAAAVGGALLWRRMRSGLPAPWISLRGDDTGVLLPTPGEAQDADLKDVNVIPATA
Sequence of human FcRn (FCGRT and beta-2 microglobulin) expressed on MDCK II cells (human) (P61769 21-119, chain 2 of 2, further chain): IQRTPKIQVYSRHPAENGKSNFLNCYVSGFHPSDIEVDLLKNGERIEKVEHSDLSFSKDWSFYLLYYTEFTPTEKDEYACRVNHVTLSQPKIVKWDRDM

Sequence of human FcRn complex (FCGRT and beta-2 microglobulin), recombinant, purified (human) (P55899 24-297 limits assumed, chain 1 of 2): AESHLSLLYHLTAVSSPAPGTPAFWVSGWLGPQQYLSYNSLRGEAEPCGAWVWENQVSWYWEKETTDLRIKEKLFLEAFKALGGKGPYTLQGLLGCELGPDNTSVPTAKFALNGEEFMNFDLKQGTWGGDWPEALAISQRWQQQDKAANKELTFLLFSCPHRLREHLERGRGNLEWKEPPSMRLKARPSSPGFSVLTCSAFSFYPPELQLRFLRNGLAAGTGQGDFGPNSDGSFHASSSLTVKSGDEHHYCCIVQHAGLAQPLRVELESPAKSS
Sequence of human FcRn complex (FCGRT and beta-2 microglobulin), recombinant, purified (human) (P61769 21-119 limits assumed, chain 2 of 2, further chain): as the sequence (P61769 21-119, chain 2 of 2, further chain) above

Row | Substance | Kd [1] | Kd [2] | Kd [3] | koff [3] | kon [3] | Kd [4] | Transcytosis Normalized to WT (normalized to WT) [5]
1 | anti-Abeta hIgG1 antibody, Fc modification D1 (M252Y/N434Y) | 14 nM | 1150 nM | – | – | – | – | –
2 | anti-Abeta hIgG1 antibody, Fc modification Q1 (M252Y/T307Q/Q311I/N434Y) | 12.7 nM | 206 nM | – | – | – | – | –
3 | anti-Abeta hIgG1 antibody, Fc modification Q2 (M252Y/T307Q/M428L/N434Y) | 10.2 nM | 482 nM | – | – | – | – | –
4 | anti-Abeta hIgG1 antibody, Fc modification Q3 (M252Y/T307Q/N434Y/Y436I) | – | 206 nM | – | – | – | – | –
5 | anti-Abeta hIgG1 antibody, Fc modification Q4 (M252Y/Q311I/M428L/N434Y) | 12.8 nM | 667 nM | – | – | – | – | –
6 | anti-Abeta hIgG1 antibody, Fc modification Q5 (M252Y/Q311I/N434Y/Y436I) | 10.8 nM | 265 nM | – | – | – | – | –
7 | anti-Abeta hIgG1 antibody, Fc modification Q6 (M252Y/M428L/N434Y/Y436I) | 10.2 nM | 367 nM | – | – | – | – | –
8 | anti-Abeta hIgG1 antibody, Fc modification Q7 (M252Y/Q311A/N434Y/Y436I) | 8.2 nM | 292 nM | – | – | – | – | –
9 | anti-Abeta hIgG1 antibody, Fc modification Q95 (M252Y/T307Q/Q311A/N434Y) | 8.2 nM | 340 nM | – | – | – | – | –
10 | anti-Abeta hIgG1 antibody, Fc modification T3 (M252Y/Q311I/N434Y) | 11.6 nM | 554 nM | – | – | – | – | –
11 | anti-Abeta hIgG1 antibody, Fc modification T94 (M252Y/N286E/N434Y) | 10.1 nM | 521 nM | – | – | – | – | –
12 | anti-Abeta hIgG4 antibody, Fc modification Q1 (M252Y/T307Q/Q311I/N434Y) | 6.3 nM | 165 nM | – | – | – | – | –
13 | anti-Abeta hIgG4 antibody, Fc modification Q2 (M252Y/T307Q/M428L/N434Y) | – | 339 nM | – | – | – | – | –
14 | anti-Abeta hIgG4 antibody, Fc modification Q3 (M252Y/T307Q/N434Y/Y436I) | 5.9 nM | 158 nM | – | – | – | – | –
15 | anti-Abeta hIgG4 antibody, Fc modification Q5 (M252Y/Q311I/N434Y/Y436I) | – | 151 nM | – | – | – | – | –
16 | anti-BACE1 hIgG1 antibody, Fc modification D1 (M252Y/N434Y) | 13 nM | 1010 nM | 28.7 nM | 0.0264 s⁻¹ | 919000 M⁻¹ s⁻¹ | 963 nM | 79
17 | anti-BACE1 hIgG1 antibody, Fc modification Q1 (M252Y/T307Q/Q311I/N434Y) | 6.6 nM | 157 nM | 4.69 nM | 0.00349 s⁻¹ | 743000 M⁻¹ s⁻¹ | 197 nM | 132
18 | anti-BACE1 hIgG1 antibody, Fc modification Q2 (M252Y/T307Q/M428L/N434Y) | 8.7 nM | 211 nM | 11.1 nM | 0.00648 s⁻¹ | 582000 M⁻¹ s⁻¹ | 663 nM | 155
19 | anti-BACE1 hIgG1 antibody, Fc modification Q3 (M252Y/T307Q/N434Y/Y436I) | 6.5 nM | 170 nM | – | – | – | 202 nM | 137
20 | anti-BACE1 hIgG1 antibody, Fc modification Q5 (M252Y/Q311I/N434Y/Y436I) | 8.8 nM | – | 5.09 nM | – | – | 252 nM | 133
21 | anti-BACE1 hIgG1 antibody, Fc modification Q6 (M252Y/M428L/N434Y/Y436I) | 8.9 nM | 194 nM | 7.72 nM | 0.00494 s⁻¹ | 639000 M⁻¹ s⁻¹ | 380 nM | 155
22 | anti-BACE1 hIgG1 antibody, Fc modification Q7 (M252Y/Q311A/N434Y/Y436I) | 7.3 nM | 269 nM | 6 nM | 0.00529 s⁻¹ | 920000 M⁻¹ s⁻¹ | 295 nM | 108

Row | Substance | Kd [1] | Kd [2] | Kd [3] | koff [3] | kon [3] | Kd [4] | Transcytosis Normalized to WT (normalized to WT) [5]
23 | anti-BACE1 hIgG1 antibody, Fc modification Q95 (M252Y/T307Q/Q311A/N434Y) | 6.9 nM | 240 nM | 7.35 nM | 0.00608 s⁻¹ | 828000 M⁻¹ s⁻¹ | 228 nM | 100
24 | anti-BACE1 hIgG1 antibody, Fc modification T1 (M252Y/T307Q/N434Y) | – | – | 12 nM | 0.0101 s⁻¹ | 874000 M⁻¹ s⁻¹ | 461 nM | 125
25 | anti-BACE1 hIgG1 antibody, Fc modification T2 (M252Y/Q311A/N434Y) | – | – | 20 nM | 0.0178 s⁻¹ | 908000 M⁻¹ s⁻¹ | 614 nM | 111
26 | anti-BACE1 hIgG1 antibody, Fc modification T3 (M252Y/Q311I/N434Y) | 9.1 nM | 307 nM | 14 nM | – | – | – | 137
27 | anti-BACE1 hIgG1 antibody, Fc modification T4 (M252Y/M428L/N434Y) | – | – | 30 nM | 0.0201 s⁻¹ | 660000 M⁻¹ s⁻¹ | 2200 nM | 100
28 | anti-BACE1 hIgG1 antibody, Fc modification T5 (M252Y/H433K/N434Y) | – | – | 34 nM | 0.0357 s⁻¹ | 1.05e+06 M⁻¹ s⁻¹ | 730 nM | 112
29 | anti-BACE1 hIgG1 antibody, Fc modification T7 (T307Q/N286E/N434Y) | – | – | 19 nM | 0.0177 s⁻¹ | 931000 M⁻¹ s⁻¹ | 1120 nM | 91
30 | anti-BACE1 hIgG1 antibody, Fc modification T8 (T307Q/Q311A/N434Y) | – | – | 37 nM | 0.0319 s⁻¹ | 854000 M⁻¹ s⁻¹ | 1680 nM | 64
31 | anti-BACE1 hIgG1 antibody, Fc modification T9 (T307Q/Q311I/N434Y) | – | – | 520 nM | 0.00767 s⁻¹ | 14800 M⁻¹ s⁻¹ | 1930 nM | 140
32 | anti-BACE1 hIgG1 antibody, Fc modification T11 (T307Q/H433K/N434Y) | – | – | 37 nM | 0.0166 s⁻¹ | 445000 M⁻¹ s⁻¹ | 4800 nM | 65
33 | anti-BACE1 hIgG1 antibody, Fc modification T13 (N286E/Q311A/N434Y) | – | – | 38 nM | 0.0327 s⁻¹ | 852000 M⁻¹ s⁻¹ | 2450 nM | 108
34 | anti-BACE1 hIgG1 antibody, Fc modification T14 (N286E/Q311I/N434Y) | – | – | 36 nM | 0.0278 s⁻¹ | 772000 M⁻¹ s⁻¹ | 3110 nM | 73
35 | anti-BACE1 hIgG1 antibody, Fc modification T16 (N286E/H433K/N434Y) | – | – | 66.7 nM | 0.0271 s⁻¹ | 406000 M⁻¹ s⁻¹ | 4980 nM | 55
36 | anti-BACE1 hIgG1 antibody, Fc modification T17 (N286E/N434Y/Y436I) | – | – | 53 nM | 0.0334 s⁻¹ | 631000 M⁻¹ s⁻¹ | 6080 nM | 65
37 | anti-BACE1 hIgG1 antibody, Fc modification T19 (Q311A/H433K/N434Y) | – | – | 53.5 nM | 0.0096 s⁻¹ | 179000 M⁻¹ s⁻¹ | 4480 nM | 55
38 | anti-BACE1 hIgG1 antibody, Fc modification T22 (Q311I/H433K/N434Y) | – | – | 64 nM | – | – | 9030 nM | 131
39 | anti-BACE1 hIgG1 antibody, Fc modification T94 (M252Y/N286E/N434Y) | – | 380 nM | 13.6 nM | – | – | 452 nM | 87
40 | anti-BACE1 hIgG1 antibody, Fc modification T96 (M252Y/V308P/N434Y) | – | – | 3.54 nM | 0.00314 s⁻¹ | 887000 M⁻¹ s⁻¹ | 123 nM | 94
41 | anti-BACE1 hIgG4 antibody, Fc modification Q1-IgG4 (M252Y/T307Q/Q311I/N434Y) | 5.2 nM | 120 nM | 5.22 nM | – | – | 114 nM | 82
42 | anti-BACE1 hIgG4 antibody, Fc modification Q2 (M252Y/T307Q/M428L/N434Y) | 6.6 nM | 370 nM | – | – | – | – | –
43 | anti-BACE1 hIgG4 antibody, Fc modification Q3-IgG4 (M252Y/T307Q/N434Y/Y436I) | 4.8 nM | 124 nM | 3.87 nM | – | – | – | 87
44 | anti-BACE1 hIgG4 antibody, Fc modification Q5-IgG4 (M252Y/Q311I/N434Y/Y436I) | 7.4 nM | 230 nM | 13.4 nM | 0.0135 s⁻¹ | 1.01e+06 M⁻¹ s⁻¹ | 322 nM | 95
